{
  "source": "patent US20220251152A1",
  "about": "“COMPOSITIONS AND METHODS FOR SELECTIVE PROTEIN DEGRADATION” (Novartis AG, priority 2019, published 2022)",
  "target": "T1, IKZF3 136-180 and 236-249-tagged avian myelocytomatosis viral oncogene (MYC) homolog (Homo sapiens, UniProt Q96SW2+Q9UKT9, DEL181-196/S197T)",
  "T1 construct": "expressed in transfected cells; host or cells: HEK293T",
  "T1 sequence (Q96SW2 whole entry, stated change not applied, one chain of several, the tested form may be a part)": "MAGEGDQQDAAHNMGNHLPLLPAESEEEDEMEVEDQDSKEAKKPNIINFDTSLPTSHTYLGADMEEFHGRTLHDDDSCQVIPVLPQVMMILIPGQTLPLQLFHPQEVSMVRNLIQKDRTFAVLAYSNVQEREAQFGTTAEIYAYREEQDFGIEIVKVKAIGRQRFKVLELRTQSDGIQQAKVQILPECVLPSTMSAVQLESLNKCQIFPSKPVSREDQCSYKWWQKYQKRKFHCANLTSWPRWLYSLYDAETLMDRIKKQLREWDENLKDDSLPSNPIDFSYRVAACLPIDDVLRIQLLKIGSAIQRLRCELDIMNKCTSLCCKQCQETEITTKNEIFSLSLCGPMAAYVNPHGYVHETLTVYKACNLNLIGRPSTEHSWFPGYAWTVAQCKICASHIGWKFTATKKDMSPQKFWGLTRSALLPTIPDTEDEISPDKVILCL",
  "experiment": "Western blot of IKZF3-tagged MYC in HEK293T cells",
  "format": "cell-based",
  "details": "tag fused to N-terminus of MYC; lenalidomide 4 hours",
  "data": [
    {"substance": "IKZF3 136-180 and 236-249: IKZF3-based degradation tag with amino acid residues 136-180 and 236-249 of human IKZF3, SEQ ID NO: 3 (HKRSHTGERPFQCNQCGASFTQKGNLLRHIKLHTGEKPFKCHLCNTASAEARHIKAEMG; source: /note=\"Description of Unknown: IKZF3 sequence\")", "values": [
      {"measurement": "ability of the tag to mediate lenalidomide-dependent degradation of MYC", "value": "mediated the lenalidomide-dependent degradation of tagged MYC"}
    ]}
  ]
}
